PMC6560085

Assays:
GST-TARDBP (TDP-43) [1] = target: T1, GST-TARDBP (TDP-43) (human, UniProt Q13148 1-414); test: EMSA; conditions: protein: recombinant; tags: N-terminal GST (pGEX-4T-1); label: 3' biotin; single strand
GST-TARDBP (TDP-43) [2] = target: T1, GST-TARDBP (TDP-43); test: EMSA; 2 ug protein; conditions: protein: recombinant; tags: N-terminal GST (pGEX-4T-1); label: 3' biotin; single strand
GST-TARDBP (TDP-43) [3] = target: T1, GST-TARDBP (TDP-43); test: EMSA; dose dependent; supershifted by anti-TARDBP (Fig. 6d); conditions: protein: recombinant; tags: N-terminal GST (pGEX-4T-1); label: 3' biotin; single strand
GST-TARDBP (TDP-43) [4] = target: T1, GST-TARDBP (TDP-43); test: competition; 0-200 fold unlabeled competitor; conditions: protein: recombinant; tags: N-terminal GST (pGEX-4T-1); single strand
GST-TARDBP (TDP-43) [5] = target: T1, GST-TARDBP (TDP-43); test: EMSA; 2 ug protein; binding unaffected; conditions: protein: recombinant; tags: N-terminal GST (pGEX-4T-1); label: 3' biotin; single strand

T1 sequence (Q13148 whole entry): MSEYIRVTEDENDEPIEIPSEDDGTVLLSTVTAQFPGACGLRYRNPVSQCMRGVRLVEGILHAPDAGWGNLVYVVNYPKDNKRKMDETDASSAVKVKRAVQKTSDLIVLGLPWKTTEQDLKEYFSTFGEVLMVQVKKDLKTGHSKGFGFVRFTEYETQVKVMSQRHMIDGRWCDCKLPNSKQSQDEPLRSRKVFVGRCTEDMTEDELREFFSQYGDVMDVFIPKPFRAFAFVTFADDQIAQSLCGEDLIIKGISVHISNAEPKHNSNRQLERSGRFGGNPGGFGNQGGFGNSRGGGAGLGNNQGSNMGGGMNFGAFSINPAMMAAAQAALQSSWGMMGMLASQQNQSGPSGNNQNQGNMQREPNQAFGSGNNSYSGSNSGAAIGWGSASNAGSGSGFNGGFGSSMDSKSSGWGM

CAGAGGTGAAAAAGTTGCATGGTG (ssDNA) [fragment s3]
binding result (GST-TARDBP (TDP-43) [1]): no binding

CTGGTGAACAGACCAATTTATGCCTACAGCCTCCTAGTACAAAGAC (ssDNA) [AS probe 2 (adjacent)]
binding result (GST-TARDBP (TDP-43) [2]): no binding

AAAGTTGCATGGTGCTGGTGAACA (ssDNA) [fragment s4]
binding result (GST-TARDBP (TDP-43) [1]): no binding

ATGAGATGATTAGGCAGAGGTGAAAAAGTTGCATGGTGCTGGTGAA (ssDNA) [AS probe 1 (WT, nt1804-1849)]
binding result (GST-TARDBP (TDP-43) [3]): binds

ATGAGATGATTAAGCATAGGCGAAAAAGTTGCATGGTGCTGGTGAA (ssDNA) [AS Mutant 2]
binding result (GST-TARDBP (TDP-43) [2]): no binding

ATGAGATGATTAGGCAGAGGTGAAAAAGTTGCATAGTACTCGTGAA (ssDNA) [AS Mutant 5]
binding result (GST-TARDBP (TDP-43) [2]): no binding

ATCAGACGACTAGGCAGAGGTGAAAAAGTTGCATGGTGCTGGTGAA (ssDNA) [AS Mutant 1]
binding result (GST-TARDBP (TDP-43) [2]): no binding

ATGAGATGATTAGGCAGAGGTGAAAAAGCTACATAGTACTGGTGAA (ssDNA) [AS Mutant 4]
binding result (GST-TARDBP (TDP-43) [2]): no binding

ATGAGATGATTAGGCAGAGGTGAAAAAGTTGCATGGTGCTGGTGAA (ssDNA) [AS probe 1 unlabeled competitor]
binding result (GST-TARDBP (TDP-43) [4]): binds

ATGAGATGATTAGGCAGAGGTGCTAGCGTTGCATGGTGCTGGTGAA (ssDNA) [AS Mutant 3 (central A5 repeat mutated)]
binding result (GST-TARDBP (TDP-43) [5]): binds

ATGAACATGAGATGATTAGGCAGAGGTG (ssDNA) [fragment s1]
binding result (GST-TARDBP (TDP-43) [1]): no binding

GGTGAAAAAGTTGCATGGTGCTGGTGAA (ssDNA) [fragment s2]
binding result (GST-TARDBP (TDP-43) [1]): no binding
